This assay has as its target HLA-DR on BJAB cells (human (endogenous in BJAB)). The experiment in a line: flow cytometry on cells; full antibody titration of purified IgGs on HLA-DR-expressing BJAB cells, Fc Block, 1 h at 4 °C, detected with AF488 goat anti-human IgG Fcγ; also after storage of the IgGs at -20, 4 or 40 °C for up to 4 weeks. A general note: In flow cytometry, cells or beads pass a laser one at a time.

B1: humanized 44H10 version 17 IgG (antibody, V domains shown)
VH: QVTLKESGPVLVKPTETLTLTCTVSGFSLTSYGVHWIRQPPGKALEWLAVIWAGGSISYSTSLMSRLTISKDTSKSQVVLTMTNMDPVDTATYYCARAYGDYVHYAMDYWGQGTLVTVSS
VL: DIQMTQSPSSLSASVGDRVTITCRASQEISGYLTWLQQKPGKAPKLLIYAASTLDSGVPSRFSGSGSGTDFTLTISSLQPEDFATYYCLQYTNYPLTFGQGTKLEIK
Consider B1, for which the fold difference in EC50 against parental 44H10 was above 50 fold.

(Values after publication PMC11270187.)
